{"source": "paper PMC5338744", "origin": "cited, not measured here", "molecular_target": "VEGFR2 (KDR) (Homo sapiens) (UniProt P35968)", "sequence (P35968 20-1356)": "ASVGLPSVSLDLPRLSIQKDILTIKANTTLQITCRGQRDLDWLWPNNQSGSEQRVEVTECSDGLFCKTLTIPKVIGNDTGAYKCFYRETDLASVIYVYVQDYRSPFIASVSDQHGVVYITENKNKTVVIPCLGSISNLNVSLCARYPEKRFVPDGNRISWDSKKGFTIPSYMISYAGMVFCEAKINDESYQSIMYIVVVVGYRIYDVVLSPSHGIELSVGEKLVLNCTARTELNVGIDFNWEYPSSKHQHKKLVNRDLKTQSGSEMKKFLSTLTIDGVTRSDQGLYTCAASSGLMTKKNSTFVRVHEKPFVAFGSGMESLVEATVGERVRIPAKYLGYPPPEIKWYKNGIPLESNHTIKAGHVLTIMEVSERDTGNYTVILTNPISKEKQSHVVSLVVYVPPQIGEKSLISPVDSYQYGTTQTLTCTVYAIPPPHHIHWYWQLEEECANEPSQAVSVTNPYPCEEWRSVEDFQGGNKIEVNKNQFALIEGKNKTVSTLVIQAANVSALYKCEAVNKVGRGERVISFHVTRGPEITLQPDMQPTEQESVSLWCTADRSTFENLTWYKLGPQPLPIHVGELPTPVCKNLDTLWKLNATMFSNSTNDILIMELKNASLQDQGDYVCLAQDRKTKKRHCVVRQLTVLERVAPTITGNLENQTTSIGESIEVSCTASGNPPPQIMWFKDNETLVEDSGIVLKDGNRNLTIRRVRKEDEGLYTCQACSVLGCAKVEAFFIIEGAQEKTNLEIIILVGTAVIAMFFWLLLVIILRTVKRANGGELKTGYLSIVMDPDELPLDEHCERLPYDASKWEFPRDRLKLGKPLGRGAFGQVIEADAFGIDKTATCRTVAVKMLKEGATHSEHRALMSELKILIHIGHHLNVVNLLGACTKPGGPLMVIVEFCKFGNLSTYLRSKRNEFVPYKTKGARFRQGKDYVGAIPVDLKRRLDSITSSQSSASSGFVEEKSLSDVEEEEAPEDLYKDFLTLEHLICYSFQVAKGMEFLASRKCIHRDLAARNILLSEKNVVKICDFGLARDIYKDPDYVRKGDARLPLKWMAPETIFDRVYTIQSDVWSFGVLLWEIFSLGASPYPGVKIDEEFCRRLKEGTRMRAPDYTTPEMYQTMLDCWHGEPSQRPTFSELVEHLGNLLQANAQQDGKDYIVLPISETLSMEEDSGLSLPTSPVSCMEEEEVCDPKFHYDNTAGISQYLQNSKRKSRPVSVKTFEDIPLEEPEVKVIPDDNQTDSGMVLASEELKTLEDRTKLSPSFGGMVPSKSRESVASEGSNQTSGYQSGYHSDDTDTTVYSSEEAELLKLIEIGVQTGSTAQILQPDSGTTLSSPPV"}
{"substance": "VEGF (from UniProt P15692)", "values": [{"measurement": "Kd", "result": 760, "unit": "pM"}]}
